Reference: article PMC6755802 (The Journal of Biological Chemistry, 2019)

T1: Super-2/IL-2Rβ binary complex (human, UniProt P60568;P14784)
T1 construct: human IL-2Rβ ectodomain, amino acids 1-214; also called stabilized Super-2/IL-2Rβ binary complex; source: baculovirus expression system, purified (nickel chromatography, SEC)
T1 chain 1: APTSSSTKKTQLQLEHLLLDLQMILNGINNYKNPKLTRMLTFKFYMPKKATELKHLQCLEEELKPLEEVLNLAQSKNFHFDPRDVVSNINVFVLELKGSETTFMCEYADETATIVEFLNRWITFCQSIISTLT
T1 chain 2: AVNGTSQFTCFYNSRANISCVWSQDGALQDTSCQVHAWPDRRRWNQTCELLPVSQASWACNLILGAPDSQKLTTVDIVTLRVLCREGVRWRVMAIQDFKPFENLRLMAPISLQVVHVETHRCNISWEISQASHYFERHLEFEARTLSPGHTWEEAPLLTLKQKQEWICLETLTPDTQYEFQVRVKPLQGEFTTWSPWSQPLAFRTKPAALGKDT

B1: affinity-matured IL-2 binary complex stapler scFv, yeast-displayed (scFv, V domains shown)
VH: QVQLQQSGPGLVKPSQTLSLTCAISGDSVSSNSATWNWIRQSPSRGLEWLGRTYYRSKWYDDYAVSVKSRITINPDTSKNQFSLQLNSVTPEDTAVYYCARATYGTYDYWGQGTLVTVSS
VL: NFMLTQPHSASESPGKTVTISCTGSRGSIASNYVQWYQQRPGSAPTTVIYEDNQRPSGVPDRFSGSIDSSSNSASLTISGLKTEDEADYYCQSYDQNYHAVFGGGTQLTVL
notes: as the scFv of m6 with changes in the VH and VL CDR3 regions; also called amIL-2B stapler; amIL-2BC stapler; source: site-directed mutagenic library of IL-2B stapler
B2: affinity-matured IL-2 binary complex stapler scFv, recombinantly expressed (scFv, V domains shown)
VH: B1 VH
VL: B1 VL
notes: VH of amIL-2B stapler; as the VH of m8 with changes in CDR3; 15-amino acid (Gly4Ser)3 linker; VL of amIL-2B stapler; as the VL of m8 with changes in CDR3; Biotinylated for immobilisation in SPR; also called amIL-2B stapler; amIL-2BC stapler; source: baculovirus system (pAcGP67A), purified (nickel chromatography, SEC)

Experiments:
[1] = molecular target: T2, IL-2/IL-2Rβ binary complex (Homo sapiens, UniProt P60568;P14784); experiment: flow cytometry on cells; scFv displayed on yeast; 1 μM of the indicated biotinylated complex components in PBE buffer, 2 h at room temperature; detection with 50 nM SA-647; details: one partner purified
T2 construct: human IL-2, amino acids 1-133; human IL-2Rβ ectodomain, amino acids 1-214; also called IL-2 BC; IL-2 binary complex; source: baculovirus expression system, purified (nickel chromatography, SEC)

[2] = molecular target: T3, IL-2Rβ ectodomain, biotinylated (for staining of yeast) (Homo sapiens, UniProt P14784, biotin (site not stated)); experiment: as above; details: one partner purified
T3 construct: human IL-2Rβ ectodomain, amino acids 1-214; also called the receptor; source: baculovirus expression system, purified (nickel chromatography, SEC)

[3] = molecular target: T4, IL-2, biotinylated (for staining of yeast) (Homo sapiens, UniProt P60568, biotin (site not stated)); experiment: as above; details: one partner purified
T4 construct: human IL-2, amino acids 1-133; also called interleukin-2; the cytokine; source: baculovirus expression system, purified (nickel chromatography, SEC)

[4] = molecular target: T1, Super-2/IL-2Rβ binary complex; experiment: SPR; biotinylated scFv immobilised on Biacore SA chip at low density; analytes flowed 60 s; complexes pre-incubated 30 min at room temperature; 25 °C; HBS-P+ with 0.2% BSA; KD from equilibrium titration, 1:1 model; in Fig. 1D all proteins at 60 μM; details: both partners purified

Binder | binding result [1] | binding result [2] | binding result [3] | Kd [4] [nM]
B1 | binds | no binding (tested: 1 μM) | no binding (tested: 1 μM) | –
B2 | – | – | – | 15
